# According to US20220195041A1 (IMMUNORIZON, published 2022):
# Residue numbers refer to the chain shown, from its start.
# B1: Construct 2: Tri-Specific variable heavy chain-variable light chain (VHVL), anti-CD3epsilon Fab with two anti-EGFR scFv (VH-VL), no regulatory domains (bispecific antibody)
# heavy: GGSGGSEVQLVESGGGLVQPGGSLRLSCAASGFTFNTYAMNWVRQAPGKGLEWVARIRSKYNNYATYYADSVKDRFTISRDDSKNTLYLQMNSLRAEDTAVYYCVRHGNFGNSYVSWFAYWGQGTMVTVSSASTKGPSVFPLAPSSKSTSGGTAALGCLVKDYFPEPVTVSWNSGALTSGVHTFPAVLQSSGLYSLSSVVTVPSSSLGTQTYICNVNHKPSNTKVDKRVEPKSCPPCGGGGSQVQLQESGPGLVKPSETLSLTCTVSGGSVSSGDYYWTWIRQSPGKGLEWIGHIYYSGNTNYNPSLKSRLTISIDTSKTQFSLKLSSVTAADTAIYYCVRDRVTGAFDIWGQGTMVTVSSGGGGSGGGGSGGGGSDIQMTQSPSSLSASVGDRVTITCQASQDISNYLNWYQQKPGKAPKLLIYDASNLETGVPSRFSGSGSGTDFTFTISSLQPEDIATYFCQHFDHLPLAFGGGTKVEIK
# light: GGSGGSQAVVTQEPSLTVSPGGTVTLTCRSSTGAVTTSNYANWVQQKPGQAPRGLIGGTNKRAPGTPARFSGSLLGGKAALTLSGVQPEDEAEYYCALWYSNLWVFGGGTKLTVLGQPKAAPSVTLFPPSSEELQANKATLVCLISDFYPGAVTVAWKADSSPVKAGVETTTPSKQSNNKYAASSYLSLTPEQWKSHRSYSCQVTHEGSTVEKTVAPTECPPCSGGGSQVQLQESGPGLVKPSETLSLTCTVSGGSVSSGDYYWTWIRQSPGKGLEWIGHIYYSGNTNYNPSLKSRLTISIDTSKTQFSLKLSSVTAADTAIYYCVRDRVTGAFDIWGQGTMVTVSSGGGGSGGGGSGGGGSDIQMTQSPSSLSASVGDRVTITCQASQDISNYLNWYQQKPGKAPKLLIYDASNLETGVPSRFSGSGSGTDFTFTISSLQPEDIATYFCQHFDHLPLAFGGGTKVEIK
# notes: Heterodimer of one HC and one LC polypeptide, no Fc; also called TriBody (VHVL); Tribody (VHVL)
# B2: Construct 3: Precursor Tri-Specific Variable Light-Variable Heavy (VLVH), anti-CD3epsilon Fab, two anti-EGFR scFv, HSA and CAP regulatory domains linked by … (bispecific antibody)
# heavy: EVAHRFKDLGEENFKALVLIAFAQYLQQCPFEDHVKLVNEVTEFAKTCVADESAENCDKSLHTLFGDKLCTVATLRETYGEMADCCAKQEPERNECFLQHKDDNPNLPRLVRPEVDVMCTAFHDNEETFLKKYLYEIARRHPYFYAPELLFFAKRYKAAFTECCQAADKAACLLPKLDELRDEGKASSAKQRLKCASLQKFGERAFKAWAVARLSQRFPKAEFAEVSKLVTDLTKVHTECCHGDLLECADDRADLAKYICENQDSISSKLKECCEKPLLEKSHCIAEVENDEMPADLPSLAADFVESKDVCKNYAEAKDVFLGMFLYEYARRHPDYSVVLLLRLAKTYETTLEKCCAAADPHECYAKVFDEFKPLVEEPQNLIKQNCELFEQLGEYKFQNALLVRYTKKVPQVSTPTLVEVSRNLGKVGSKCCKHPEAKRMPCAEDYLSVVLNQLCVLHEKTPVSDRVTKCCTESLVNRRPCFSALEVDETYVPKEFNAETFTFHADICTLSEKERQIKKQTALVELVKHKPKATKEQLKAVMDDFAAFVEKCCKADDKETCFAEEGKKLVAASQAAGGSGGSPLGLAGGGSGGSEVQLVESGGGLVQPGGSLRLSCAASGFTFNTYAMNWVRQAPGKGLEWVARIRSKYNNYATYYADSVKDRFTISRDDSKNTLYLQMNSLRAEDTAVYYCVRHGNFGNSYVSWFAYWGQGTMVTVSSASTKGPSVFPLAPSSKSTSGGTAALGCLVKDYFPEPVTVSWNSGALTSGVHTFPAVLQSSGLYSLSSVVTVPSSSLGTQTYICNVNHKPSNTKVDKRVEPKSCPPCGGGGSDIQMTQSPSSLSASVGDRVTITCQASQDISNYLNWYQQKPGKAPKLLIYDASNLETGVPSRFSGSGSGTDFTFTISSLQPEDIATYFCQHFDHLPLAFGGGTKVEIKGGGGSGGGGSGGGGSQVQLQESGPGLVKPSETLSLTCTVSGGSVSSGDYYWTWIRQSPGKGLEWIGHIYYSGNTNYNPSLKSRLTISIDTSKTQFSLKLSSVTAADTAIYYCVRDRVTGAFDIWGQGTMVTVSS
# light: QDGNEEMGGITQTPYKVSISGTTVILTGGSGGSPLGLAGGGSGGSQAVVTQEPSLTVSPGGTVTLTCRSSTGAVTTSNYANWVQQKPGQAPRGLIGGTNKRAPGTPARFSGSLLGGKAALTLSGVQPEDEAEYYCALWYSNLWVFGGGTKLTVLGQPKAAPSVTLFPPSSEELQANKATLVCLISDFYPGAVTVAWKADSSPVKAGVETTTPSKQSNNKYAASSYLSLTPEQWKSHRSYSCQVTHEGSTVEKTVAPTECPPCSGGGSDIQMTQSPSSLSASVGDRVTITCQASQDISNYLNWYQQKPGKAPKLLIYDASNLETGVPSRFSGSGSGTDFTFTISSLQPEDIATYFCQHFDHLPLAFGGGTKVEIKGGGGSGGGGSGGGGSQVQLQESGPGLVKPSETLSLTCTVSGGSVSSGDYYWTWIRQSPGKGLEWIGHIYYSGNTNYNPSLKSRLTISIDTSKTQFSLKLSSVTAADTAIYYCVRDRVTGAFDIWGQGTMVTVSS
# notes: Uncleaved precursor, about 170 kDa; also called ProTriBody-C EGFR (VL-VH); Precursor Tri-body construct (VL-VH)
# B3: Construct 5: Precursor Tri-Specific Non-Cleavable (NC) Variable Light Variable Heavy (VLVH), anti-CD3epsilon Fab, two anti-EGFR scFv, HSA and CAP regulatory … (bispecific antibody)
# heavy: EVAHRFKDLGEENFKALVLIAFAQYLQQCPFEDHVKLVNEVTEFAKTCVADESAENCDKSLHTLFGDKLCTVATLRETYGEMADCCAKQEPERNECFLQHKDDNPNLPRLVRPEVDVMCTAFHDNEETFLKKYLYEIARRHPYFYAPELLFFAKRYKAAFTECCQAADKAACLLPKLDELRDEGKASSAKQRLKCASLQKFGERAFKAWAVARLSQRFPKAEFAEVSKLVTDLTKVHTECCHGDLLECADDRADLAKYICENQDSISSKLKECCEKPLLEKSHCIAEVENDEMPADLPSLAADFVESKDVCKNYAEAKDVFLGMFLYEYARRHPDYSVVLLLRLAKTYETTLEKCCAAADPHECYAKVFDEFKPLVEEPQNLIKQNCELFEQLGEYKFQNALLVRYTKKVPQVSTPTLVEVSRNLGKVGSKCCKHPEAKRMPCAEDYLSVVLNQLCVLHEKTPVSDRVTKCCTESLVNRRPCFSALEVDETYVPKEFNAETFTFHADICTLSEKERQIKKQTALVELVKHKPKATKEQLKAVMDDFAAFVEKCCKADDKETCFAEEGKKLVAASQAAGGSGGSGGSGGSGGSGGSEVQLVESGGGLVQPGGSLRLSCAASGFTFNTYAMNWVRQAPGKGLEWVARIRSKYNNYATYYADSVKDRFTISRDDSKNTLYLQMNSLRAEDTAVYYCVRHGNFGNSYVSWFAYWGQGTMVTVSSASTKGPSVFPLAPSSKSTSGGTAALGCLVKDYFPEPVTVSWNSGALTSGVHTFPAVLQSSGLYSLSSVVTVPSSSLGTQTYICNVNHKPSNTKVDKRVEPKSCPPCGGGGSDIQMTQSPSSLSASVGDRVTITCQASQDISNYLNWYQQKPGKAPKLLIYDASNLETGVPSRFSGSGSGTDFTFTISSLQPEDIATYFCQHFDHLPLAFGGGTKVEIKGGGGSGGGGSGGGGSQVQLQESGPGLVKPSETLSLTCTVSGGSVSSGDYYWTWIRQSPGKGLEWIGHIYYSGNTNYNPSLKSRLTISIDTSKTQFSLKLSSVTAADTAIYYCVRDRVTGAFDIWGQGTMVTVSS
# light: B2 light with P34G, L35G, G36S, L37G, A38G, G39S
# notes: also called ProTriBody-NC EGFR (VL-VH); Non-Cleavable Precursor Tri-body construct (VL-VH)
# B4: Construct 1: Tri-Specific variable light chain-variable heavy chain (VLVH), anti-CD3epsilon Fab with two anti-EGFR scFv (VL-VH), no regulatory domains (bispecific antibody)
# heavy: GGSGGSEVQLVESGGGLVQPGGSLRLSCAASGFTFNTYAMNWVRQAPGKGLEWVARIRSKYNNYATYYADSVKDRFTISRDDSKNTLYLQMNSLRAEDTAVYYCVRHGNFGNSYVSWFAYWGQGTMVTVSSASTKGPSVFPLAPSSKSTSGGTAALGCLVKDYFPEPVTVSWNSGALTSGVHTFPAVLQSSGLYSLSSVVTVPSSSLGTQTYICNVNHKPSNTKVDKRVEPKSCPPCGGGGSDIQMTQSPSSLSASVGDRVTITCQASQDISNYLNWYQQKPGKAPKLLIYDASNLETGVPSRFSGSGSGTDFTFTISSLQPEDIATYFCQHFDHLPLAFGGGTKVEIKGGGGSGGGGSGGGGSQVQLQESGPGLVKPSETLSLTCTVSGGSVSSGDYYWTWIRQSPGKGLEWIGHIYYSGNTNYNPSLKSRLTISIDTSKTQFSLKLSSVTAADTAIYYCVRDRVTGAFDIWGQGTMVTVSS
# light: GGSGGSQAVVTQEPSLTVSPGGTVTLTCRSSTGAVTTSNYANWVQQKPGQAPRGLIGGTNKRAPGTPARFSGSLLGGKAALTLSGVQPEDEAEYYCALWYSNLWVFGGGTKLTVLGQPKAAPSVTLFPPSSEELQANKATLVCLISDFYPGAVTVAWKADSSPVKAGVETTTPSKQSNNKYAASSYLSLTPEQWKSHRSYSCQVTHEGSTVEKTVAPTECPPCSGGGSDIQMTQSPSSLSASVGDRVTITCQASQDISNYLNWYQQKPGKAPKLLIYDASNLETGVPSRFSGSGSGTDFTFTISSLQPEDIATYFCQHFDHLPLAFGGGTKVEIKGGGGSGGGGSGGGGSQVQLQESGPGLVKPSETLSLTCTVSGGSVSSGDYYWTWIRQSPGKGLEWIGHIYYSGNTNYNPSLKSRLTISIDTSKTQFSLKLSSVTAADTAIYYCVRDRVTGAFDIWGQGTMVTVSS
# notes: Heterodimer of one HC and one LC polypeptide (about 100 kDa), no Fc; also called TriBody (VLVH); Tribody EGFR (VL-VH)
# B5: Construct 4: Precursor Tri-Specific Construct Variable Heavy Variable Light (VHVL), anti-CD3epsilon Fab, two anti-EGFR scFv, HSA and CAP regulatory domains … (bispecific antibody)
# heavy: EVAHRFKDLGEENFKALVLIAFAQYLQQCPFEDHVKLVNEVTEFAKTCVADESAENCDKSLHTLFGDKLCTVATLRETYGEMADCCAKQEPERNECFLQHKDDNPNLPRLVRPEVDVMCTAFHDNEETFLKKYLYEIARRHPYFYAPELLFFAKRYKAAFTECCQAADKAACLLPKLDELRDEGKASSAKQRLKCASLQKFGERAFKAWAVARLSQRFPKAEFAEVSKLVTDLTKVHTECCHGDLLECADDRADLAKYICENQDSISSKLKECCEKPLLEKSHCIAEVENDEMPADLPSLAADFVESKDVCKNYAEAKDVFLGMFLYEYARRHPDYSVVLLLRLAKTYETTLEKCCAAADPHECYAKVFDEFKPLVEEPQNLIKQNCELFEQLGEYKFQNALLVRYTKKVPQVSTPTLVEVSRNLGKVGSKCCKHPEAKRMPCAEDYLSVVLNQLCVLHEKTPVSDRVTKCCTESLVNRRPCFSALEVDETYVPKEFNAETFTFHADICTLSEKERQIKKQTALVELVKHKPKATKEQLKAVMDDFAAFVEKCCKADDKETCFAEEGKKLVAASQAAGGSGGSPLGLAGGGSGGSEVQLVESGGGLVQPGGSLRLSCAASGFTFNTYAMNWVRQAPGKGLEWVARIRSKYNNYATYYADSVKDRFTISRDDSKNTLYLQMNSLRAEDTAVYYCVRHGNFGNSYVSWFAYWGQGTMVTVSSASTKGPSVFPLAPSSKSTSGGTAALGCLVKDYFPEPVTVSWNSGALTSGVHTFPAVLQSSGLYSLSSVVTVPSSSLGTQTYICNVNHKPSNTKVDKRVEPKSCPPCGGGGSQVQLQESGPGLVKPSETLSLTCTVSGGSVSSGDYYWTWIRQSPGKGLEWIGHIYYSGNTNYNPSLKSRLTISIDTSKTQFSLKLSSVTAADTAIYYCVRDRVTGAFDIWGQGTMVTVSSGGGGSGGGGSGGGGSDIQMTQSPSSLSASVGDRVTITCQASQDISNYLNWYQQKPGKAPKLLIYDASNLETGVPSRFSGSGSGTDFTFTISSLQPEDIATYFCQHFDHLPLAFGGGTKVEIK
# light: QDGNEEMGGITQTPYKVSISGTTVILTGGSGGSPLGLAGGGSGGSQAVVTQEPSLTVSPGGTVTLTCRSSTGAVTTSNYANWVQQKPGQAPRGLIGGTNKRAPGTPARFSGSLLGGKAALTLSGVQPEDEAEYYCALWYSNLWVFGGGTKLTVLGQPKAAPSVTLFPPSSEELQANKATLVCLISDFYPGAVTVAWKADSSPVKAGVETTTPSKQSNNKYAASSYLSLTPEQWKSHRSYSCQVTHEGSTVEKTVAPTECPPCSGGGSQVQLQESGPGLVKPSETLSLTCTVSGGSVSSGDYYWTWIRQSPGKGLEWIGHIYYSGNTNYNPSLKSRLTISIDTSKTQFSLKLSSVTAADTAIYYCVRDRVTGAFDIWGQGTMVTVSSGGGGSGGGGSGGGGSDIQMTQSPSSLSASVGDRVTITCQASQDISNYLNWYQQKPGKAPKLLIYDASNLETGVPSRFSGSGSGTDFTFTISSLQPEDIATYFCQHFDHLPLAFGGGTKVEIK
# notes: Uncleaved precursor (no MMP9 treatment); also called ProTriBody-C (VHVL); Pro-Tribody-C (VHVL)
# B6: Construct 6: Precursor Tri-Specific Non-Cleavable (NC) Variable Heavy Variable Light (VHVL), anti-CD3epsilon Fab, two anti-EGFR scFv, HSA and CAP regulatory … (bispecific antibody)
# heavy: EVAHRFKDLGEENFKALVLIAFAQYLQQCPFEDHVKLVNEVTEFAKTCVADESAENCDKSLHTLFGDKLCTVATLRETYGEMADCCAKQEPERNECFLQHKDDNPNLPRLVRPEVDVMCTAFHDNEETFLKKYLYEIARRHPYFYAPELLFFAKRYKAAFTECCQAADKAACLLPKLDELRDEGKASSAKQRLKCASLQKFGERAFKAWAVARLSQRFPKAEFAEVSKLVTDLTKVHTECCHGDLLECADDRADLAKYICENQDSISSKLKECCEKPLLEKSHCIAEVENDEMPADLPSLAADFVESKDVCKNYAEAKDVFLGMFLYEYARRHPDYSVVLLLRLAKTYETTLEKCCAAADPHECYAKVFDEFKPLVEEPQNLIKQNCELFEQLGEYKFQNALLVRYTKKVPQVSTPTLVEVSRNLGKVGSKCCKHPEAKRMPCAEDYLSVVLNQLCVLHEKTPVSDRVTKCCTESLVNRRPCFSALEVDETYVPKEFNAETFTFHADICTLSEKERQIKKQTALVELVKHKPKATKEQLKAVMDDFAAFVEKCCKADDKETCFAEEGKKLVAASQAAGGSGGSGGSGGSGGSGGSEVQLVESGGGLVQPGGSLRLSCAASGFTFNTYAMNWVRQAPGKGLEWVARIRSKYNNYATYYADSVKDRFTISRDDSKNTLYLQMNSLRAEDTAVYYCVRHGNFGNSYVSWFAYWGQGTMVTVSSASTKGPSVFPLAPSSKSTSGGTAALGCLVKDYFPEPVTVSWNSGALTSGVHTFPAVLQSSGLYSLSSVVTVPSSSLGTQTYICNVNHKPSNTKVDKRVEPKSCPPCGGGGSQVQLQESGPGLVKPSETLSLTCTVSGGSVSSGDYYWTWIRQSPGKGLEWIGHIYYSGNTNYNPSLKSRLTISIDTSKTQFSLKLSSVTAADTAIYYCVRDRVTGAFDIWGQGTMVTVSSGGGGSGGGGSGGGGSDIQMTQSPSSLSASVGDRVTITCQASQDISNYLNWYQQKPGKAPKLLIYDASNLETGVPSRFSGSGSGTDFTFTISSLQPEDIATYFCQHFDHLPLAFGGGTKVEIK
# light: B5 light with P34G, L35G, G36S, L37G, A38G, G39S
# notes: Not cleaved by MMP9, so the same molecule stands in the assays with and without MMP9; also called ProTriBody-NC (VHVL); Pro-Tribody-NC (VHVL)
# Target: T1, human CD3epsilon on Jurkat cells (human, UniProt P07766 22-207)
# T1 construct: Endogenous CD3epsilon on Jurkat T cells, within the CD3/TCR complex; also called Jurkat Cells (Human CD3e); human-CD3e expressing Jurkat cells
# Assay: FACS on Jurkat cells (FIG. 25)
row,Binder,binding result
1,B1,binds

# Target: T2, cyno CD3epsilon-His (cynomolgus CD3epsilon extracellular fusion antigen, Cat #CDE-05226, Acro Biosystems) (cynomolgus, UniProt Q95LI5 22-117)
# T2 construct: extracellular domain; Bought reagent; also called cyno CD3e antigen; not shown: His tag
# T2 sequence (looked up): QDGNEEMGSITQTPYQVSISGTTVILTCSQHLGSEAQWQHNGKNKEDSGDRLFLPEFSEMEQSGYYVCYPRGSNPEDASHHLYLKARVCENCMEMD
# Assay: ELISA, coated cyno CD3epsilon-His (FIG. 19B)
# Experimental: (§1) The EGFR antigens hEGFR-Fc (Cat #344-ER-050, Bio-techne) and rhesus EGFR-Fc (Cat #EGR-05252, Acro Biosystems)) were diluted to a 0.05 ug/ml concentration in PBS. Human CD3epsilon (hCD3epsilon-His (Cat #10977-H08S, Sino Biological) and cynomolgus CD3epsilon (Cat #CDE-05226, Acro Biosystems)) were diluted to a 0.01 ug/ml concentration in PBS. ELISA plate (Cat #9018, Corning) wells were filled with 100 ul of antigen suspension. Plates were incubated overnight at 4° C. Wells were blocked with 250 ul 1% BSA in PBST for 1 hr at 37° C. and then washed four times with PBST. All washes were done using Biotek (Elx 405). All construct antibodies were diluted to 15 ug/ml and prepared with 3-fold serial dilutions (12 points, including 0 ug/ml). 100 ul/well of diluted antibody construct solution was added to plate and incubated for 1 hr at 37° C. Plates were washed four times with PBST, then 100 ul/well of anti-human kappa light chain-HRP antibody (1:10000) was added and incubated for 0.5 hr at 37° C. Wells were washed 4 times with PBST, then 100 ul/well of TMB substrate was added and plates were incubated at RT for 5 min. 100 ul/well of 1.0 N HCl was added to terminate the reaction. Plates were read using ELISA plate reader at 450 nm wavelength (SpectraMax M5e). Data Analysis was performed using Graphpad Prism 5 software by using nonlinear regression (curve fit): log (agonist) vs. response, agonist is antibody concentration (nM) and response is OD value.
row,Binder,binding result
1,B1,binds
2,B2,binds
3,B3,binds
4,B4,binds

# Target: T3, hEGFR-Fc (EGFR extracellular fusion antigen, Cat #344-ER-050, Bio-techne) (human, UniProt P00533 25-645)
# T3 construct: extracellular domain; Bought reagent; also called human EGFR antigen; extracellular domain of hEGFR; not shown: Fc part of the bought fusion
# Assay: ELISA, coated hEGFR-Fc (FIG. 18A)
# Experimental: as §1
row,Binder,binding result
1,B1,binds
2,B2,binds
3,B3,binds
4,B4,binds
5,B5,binds
6,B6,binds

# Target: T4, rhesus EGFR-Fc (rhesus EGFR extracellular fusion antigen, Cat #EGR-05252, Acro Biosystems) (rhesus, UniProt P55245 25-645)
# T4 construct: extracellular domain; Bought reagent; also called rhesus EGFR antigen; extracellular domain of rhesus EGFR; not shown: Fc part of the bought fusion
# Assay: ELISA, coated rhesus EGFR-Fc (FIG. 18B)
# Experimental: as §1
row,Binder,binding result
1,B1,binds
2,B2,binds
3,B3,binds
4,B4,binds
5,B5,binds
6,B6,binds

# Target: T5, human CD3epsilon-His (human CD3epsilon extracellular fusion antigen, Cat #10977-H08S, Sino Biological) (human, UniProt P07766 22-126)
# T5 construct: Bought reagent; also called hCD3epsilon-His; hCD3epsilon; not shown: His tag
# Assay: ELISA, coated human CD3epsilon-His (FIG. 19A)
# Experimental: as §1
row,Binder,binding result
1,B1,binds
2,B2,binds
3,B3,binds
4,B4,binds
